Experimental data as given in patent publication US20190284293A1 (Bristol-Myers Squibb, published 2019).

T1: rhCD73 bound to his-tag magnet beads (human, UniProt P21589 27-547, limits assumed)
T1 sequence: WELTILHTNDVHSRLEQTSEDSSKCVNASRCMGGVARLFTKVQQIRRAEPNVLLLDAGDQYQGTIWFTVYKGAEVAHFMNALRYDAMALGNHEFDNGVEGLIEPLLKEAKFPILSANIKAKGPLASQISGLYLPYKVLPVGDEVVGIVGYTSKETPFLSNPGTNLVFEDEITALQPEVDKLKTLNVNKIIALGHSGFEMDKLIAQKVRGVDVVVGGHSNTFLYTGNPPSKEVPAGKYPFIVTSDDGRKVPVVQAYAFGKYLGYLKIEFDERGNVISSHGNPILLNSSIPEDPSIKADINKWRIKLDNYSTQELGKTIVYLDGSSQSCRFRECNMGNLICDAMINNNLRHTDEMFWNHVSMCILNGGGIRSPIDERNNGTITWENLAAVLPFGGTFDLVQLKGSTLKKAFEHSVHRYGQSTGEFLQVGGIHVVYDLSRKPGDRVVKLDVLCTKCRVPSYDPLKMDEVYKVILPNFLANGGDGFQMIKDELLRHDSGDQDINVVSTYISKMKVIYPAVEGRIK

T2: cyno CD73, Sino Biological Inc Cat#90192-C08H, bound to his-tag magnet beads (cynomolgus, UniProt P21589 27-547 (human entry))
T2 chain: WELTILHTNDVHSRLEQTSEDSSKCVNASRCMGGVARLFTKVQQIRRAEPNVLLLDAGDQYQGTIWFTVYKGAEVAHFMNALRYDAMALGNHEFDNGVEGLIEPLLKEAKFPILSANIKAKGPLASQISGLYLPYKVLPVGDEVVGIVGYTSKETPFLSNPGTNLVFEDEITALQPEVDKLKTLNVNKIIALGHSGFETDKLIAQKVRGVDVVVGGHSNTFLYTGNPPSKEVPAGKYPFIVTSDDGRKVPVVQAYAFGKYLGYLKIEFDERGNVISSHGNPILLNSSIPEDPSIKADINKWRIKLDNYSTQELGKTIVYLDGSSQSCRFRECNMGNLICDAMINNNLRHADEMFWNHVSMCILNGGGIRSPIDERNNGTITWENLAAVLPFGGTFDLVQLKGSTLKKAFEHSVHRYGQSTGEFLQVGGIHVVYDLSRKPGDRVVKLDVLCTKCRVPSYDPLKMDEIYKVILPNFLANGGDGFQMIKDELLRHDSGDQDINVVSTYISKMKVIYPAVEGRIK

T3: human CD73 on cells (human, UniProt P21589 27-549)
T3 sequence: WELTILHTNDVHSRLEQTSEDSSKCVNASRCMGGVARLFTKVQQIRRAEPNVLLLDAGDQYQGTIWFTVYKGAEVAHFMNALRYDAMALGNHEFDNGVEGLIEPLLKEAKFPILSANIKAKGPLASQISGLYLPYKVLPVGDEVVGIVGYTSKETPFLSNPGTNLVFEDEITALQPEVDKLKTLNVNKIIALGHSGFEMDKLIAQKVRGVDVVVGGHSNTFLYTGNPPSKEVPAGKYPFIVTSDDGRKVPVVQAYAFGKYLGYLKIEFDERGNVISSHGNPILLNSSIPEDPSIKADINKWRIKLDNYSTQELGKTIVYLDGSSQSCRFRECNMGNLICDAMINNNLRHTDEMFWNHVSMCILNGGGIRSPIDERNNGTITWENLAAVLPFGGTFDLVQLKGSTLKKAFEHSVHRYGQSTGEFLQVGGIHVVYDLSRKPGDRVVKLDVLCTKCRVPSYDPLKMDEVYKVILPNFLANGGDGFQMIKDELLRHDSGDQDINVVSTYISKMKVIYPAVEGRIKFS


Experiments:
[1] = biological target: T1, rhCD73 bound to his-tag magnet beads; experiment: cell-based or functional assay
[2] = biological target: T2, cyno CD73, Sino Biological Inc …; experiment: cell-based or functional assay
[3] = biological target: T3, human CD73 on cells; experiment: cell-based or functional assay
[4] = biological target: T3, human CD73 on cells; experiment: cell-based or functional assay; remark: listed apart in the source
[5] = biological target: T3, human CD73 on cells; experiment: flow cytometry, Calu6 cells
Protocol: Titration binding curves were produced with CD73 antibodies on Calu6 (CD73 endogenous expressors; human pulmonary adenocarcinoma cell line), DMS114 (CD73 negative; human small cell lung cancer cell line), CHO-cynoCD73 (cynoCD73-transfected) and CHO-K1 (cynoCD73 negative), cells using Alexa Fluor® 647 Goat Anti-Human IgG (H+L) as a secondary antibody, Invitrogen Cat#A-21445, using the following method: 100000 cells were plated in 100 uL PBS+2% FBS per well and blocked for 20 min. Using a U-bottom 96-deep well plate, volumes of antibody and PBS+2% FBS were combined as dictated by Table 12 below.
An 8-point serial dilution was performed by diluting a sixth of the volume (90 uL) into […], PBS+2% FBS. The cell plate was spun down for 5 minutes at 1500 rpm. 100 uL of diluted antibody was added per well of the plate. 100 uL PBS+2% FBS were added to all other wells. […] The plates were spun down at 1500 rpm for 5 min and washed in 200 uL PBS+2% FBS per well. The plates were washed again, resuspended in 200 uL 2% FBS in PBS per well and the samples were run.

[6] = biological target: T3, human CD73 on cells; experiment: binding titration on Calu6 cells, average of 2-6 experiments

Row | Binder | EC50 (nM), inhibition of bead-bound human CD73 enzymatic activity [1] [nM] | EC50 (nM), enzymatic inhibition of cyno CD73 (bead-bound) [2] [nM] | EC50 Calu6 inhibition [3] [pM] | EC50 (nM), high-content internalization assay, Calu6, 2 h [4] [nM] | Ymax, high-content internalization assay (percent of 100 nM 11F11) [4] [%] | EC50 [5] [pM] | EC50 [6] [pM]
1 | CD73.10-IgG2-C219S-IgG1.1f (antibody, also called CD73.10-IgG2CS-IgG1.1f; CD73.10-IgG2S-IgG1.1f) heavy: QVQLVESGGGVVQPGRSLRLSCAASGFTFSNYGMHWVRQAPGKGLEWVAVIWYDESNKYYPDSVKGRFTISRDNSKNTLYLQMNSLRAEDTAVYYCARGGSSWYPDSFDIWGQGTMVTVSSASTKGPSVFPLAPCSRSTSESTAALGCLVKDYFPEPVTVSWNSGALTSGVHTFPAVLQSSGLYSLSSVVTVPSSNFGTQTYTCNVDHKPSNTKVDKTVERKSCVECPPCPAPPVAGPSVFLFPPKPKDTLMISRTPEVTCVVVDVSHEDPEVKFNWYVDGVEVHNAKTKPREEQYNSTYRVVSVLTVLHQDWLNGKEYKCKVSNKALPSSIEKTISKAKGQPREPQVYTLPPSREEMTKNQVSLTCLVKGFYPSDIAVEWESNGQPENNYKTTPPVLDSDGSFFLYSKLTVDKSRWQQGNVFSCSVMHEALHNHYTQKSLSLSPG light: not shown | 4.84 | 9.94 | 770 | 0.87 | 99 | 850 | 850
2 | CD73.10-IgG2-C219S (antibody, also called CD73.10-IgG2CS; CD73.10-IgG2S) heavy: QVQLVESGGGVVQPGRSLRLSCAASGFTFSNYGMHWVRQAPGKGLEWVAVIWYDESNKYYPDSVKGRFTISRDNSKNTLYLQMNSLRAEDTAVYYCARGGSSWYPDSFDIWGQGTMVTVSSASTKGPSVFPLAPCSRSTSESTAALGCLVKDYFPEPVTVSWNSGALTSGVHTFPAVLQSSGLYSLSSVVTVPSSNFGTQTYTCNVDHKPSNTKVDKTVERKSCVECPPCPAPPVAGPSVFLFPPKPKDTLMISRTPEVTCVVVDVSHEDPEVQFNWYVDGVEVHNAKTKPREEQFNSTFRVVSVLTVVHQDWLNGKEYKCKVSNKGLPAPIEKTISKTKGQPREPQVYTLPPSREEMTKNQVSLTCLVKGFYPSDIAVEWESNGQPENNYKTTPPMLDSDGSFFLYSKLTVDKSRWQQGNVFSCSVMHEALHNHYTQKSLSLSPG light: not shown | 7.54 | 8.78 | 840 | 0.67 | 99 | 850 | 850
